Data: patent US20220332776A1, “ANTIBODY […] INDUCED DIMERIZERS (AbCID) AS MOLECULAR […] AND USES THEREOF” (The Regents of the University of California, priority 2019, published 2022)

B1: Fab-TC2: Fab-phage clone from thalidomide-cereblon IMiD-binding domain selection; CDRs SEQ ID NO: 2, 7, 12, 21, 22, 17 (antibody)
heavy: EISEVQLVESGGGLVQPGGSLRLSCAASGFNVSSSSIHWVRQAPGKGLEWVASIYSYYGSTYYADSVKGRFTISADTSKNTAYLQMNSLRAEDTAVYYCARTDSWYYYRYGGMDYWGQGTLVTVSSASTKGPSVFPLAPSSKSTSGGTAALGCLVKDYFPEPVTVSWNSGALTSGVHTFPAVLQSSGLYSLSSVVTVPSSSLGTQTYICNVNHKPSNTKVDKKVEPKSCDKTHTGGSHHHHHH
light: SDIQMTQSPSSLSASVGDRVTITCRASQSVSSAVAWYQQKPGKAPKLLIYSASSLYSGVPSRFSGSRSGTDFTLTISSLQPEDFATYYCQQYSWWWMPITFGQGTKVEIKRTVAAPSVFIFPPSDSQLKSGTASVVCLLNNFYPREAKVQWKVDNALQSGNSQESVTEQDSKDSTYSLSSTLTLSKADYEKHKVYACEVTHQGLSSPVTKSFNRGECGGSDYKDDDDK
B2: Fab-PC1 (Fab)
heavy: EISEVQLVESGGGLVQPGGSLRLSCAASGFNVSSYSIHWVRQAPGKGLEWVASISSYSGSTSYADSVKGRFTISADTSKNTAYLQMNSLRAEDTAVYYCARSYFVEYYYYYGWPWGLDYWGQGTLVTVSSASTKGPSVFPLAPSSKSTSGGTAALGCLVKDYFPEPVTVSWNSGALTSGVHTFPAVLQSSGLYSLSSVVTVPSSSLGTQTYICNVNHKPSNTKVDKKVEPKSCDKTHTGGSHHHHHH
light: SDIQMTQSPSSLSASVGDRVTITCRASQSVSSAVAWYQQKPGKAPKLLIYSASSLYSGVPSRFSGSRSGTDFTLTISSLQPEDFATYYCQQSSYSYLFTFGQGTKVEIKRTVAAPSVFIFPPSDSQLKSGTASVVCLLNNFYPREAKVQWKVDNALQSGNSQESVTEQDSKDSTYSLSSTLTLSKADYEKHKVYACEVTHQGLSSPVTKSFNRGECGGSDYKDDDDK
notes: chains assembled here by putting the CDRs in place of the scaffold's own CDR stretches; also called Fab-phage clone PC1
B3: Fab-PC1: Fab-phage clone from pomalidomide-cereblon IMiD-binding domain selection; CDRs SEQ ID NO: 4, 9, 14, 21, 22, 19 (antibody)
heavy: B2 heavy
light: B2 light

What was measured:
[1] = tested on: scFab-TC1-eGFP fusion protein; assay: IMiD-induced degradation of scFab-TC1-eGFP in HEK 293T cells, flow cytometry for GFP fluorescence; assay type: cell-based; conditions: HEK 293T cells transfected with scFab-TC1-eGFP; 1000 nM, 100 nM or 10 nM for 20 hours; GFP fluorescence intensity
Procedure: Fab TC1 was converted into a previously described single-chain Fab construct using Gibson cloning (Hornsby, et al., Mol. Cell. Proteomics, 14:2833-2847 (2015)) and subsequently fused to eGFP by Gibson cloning into a pcDNA3.1 vector to produce an expression vector encoding an scTC1-eGFP fusion protein.
K562 and HEK293T cells utilized were from frozen stocks maintained by the Wells lab. The cell lines were not authenticated before use. No test for mycoplasma contamination was performed. Cells expressing scTC1-eGFP were transfected with FugeneHD transfection reagent purchased from Promega using the manufacturer's protocol. Unless otherwise noted all Jurkat and K562 cells lines were cultured in RPMI supplemented with 10% FBS and 1× Pen/Strep. CD19^+ K562 cells were maintained in puromycin (2 μg/mL). HEK293T cells containing the Gal4-UAS-Fluc operon were maintained in High Glucose DMEM supplemented with 10% FBS, 1× Pen/Strep, and puromycin (2 μg/mL). All cell lines were cultured at 37° C. under 5% CO2.
HEK 293T cells (ATCC® CRL-3216™) were transfected to express scFab-TC1-eGFP. Transfected cells were treated with thalidomide, lenalidomide, or pomalidomide at 1000 nM, 100 nM, or 10 nM for 20 hours, after which GFP fluorescence intensity was measured by flow cytometry. Treatment with DMSO was included as a negative control.

[2] = target: T1, cereblon IMiD-binding domain (SEQ ID NO: 25) (Homo sapiens, UniProt Q96SW2); assay: Fab ELISA with cereblon IMiD-binding domain in the presence or absence of IMiD; conditions: thalidomide, lenalidomide or pomalidomide, FIG. 2G
T1 construct: TEV cut site; HIS6 tag; made in house; host or cells: E. coli BL21(DE3)
Procedure: ELISAs were performed according to standard protocols. […] 20 nM of biotinylated cereblon was captured on the NeutrAvidin-coated wells for 30 minutes followed by the addition of various concentrations of Fab with either 5 μM thalidomide, lenalidomide, or pomalidomide or 0.05% DMSO for 30 minutes. The bound Fabs were then detected using a horseradish peroxidase (HRP)-conjugated anti-Fab monoclonal antibody (Jackson ImmunoResearch 109-036-097).
(§1) The unique Fabs from Example 1 were sub-cloned into a bacterial expression vector, expressed, and purified (Hornsby, et al., Mol. Cell. Proteomics, 14:2833-2847 (2015)). […] To further profile the Fabs, we characterized the kinetics of cereblon IMiD-binding domain binding for Fab-TC2 and Fab-PC1 in the presence or absence of their respective IMiD by biolayer interferometry (FIGS. 3A and 3B) (Shah, et al., J. Vis. Exp., e51383 (2014)).

[3] = target: T2, cereblon IMiD-binding domain (Homo sapiens, UniProt Q96SW2); assay: Biolayer interferometry binding kinetics of Fabs to cereblon IMiD-binding domain; conditions: for binding to the cereblon IMiD-binding domain alone: absence of IMiD
T2 construct: TEV cut site; HIS6 tag; made in house; host or cells: E. coli BL21(DE3)
Procedure: Biolayer interferometery data were measured using an Octet RED384 instrument (ForteBio). Biotinylated cereblon was immobilized on a Streptavidin (SA) biosensor using a 200 nM solution. Serial dilutions of Fabs in kinetics buffer (PBS, pH 7.4, 0.05% Tween-20, 0.2% BSA, 10 μM biotin) with IMiD (1 μM) or vehicle (0.05% DMSO) were used as analyte. Affinity (KD) and kinetic parameters (kon and koff) were calculated from a global fit (1:1) of the data using the Octet RED384 software.
as §1

[4] = target: T3, pomalidomide-bound cereblon IMiD-binding domain (Pongo abelii (Sumatran orangutan) …, UniProt Q5R6Y2 306-414, biotinylated on its AviTag); assay: Fab-phage competition ELISA (OD450): binding to immobilized IMiD-bound cereblon IMiD-binding domain with 20 nM soluble competitor divided by binding without competitor
T3 construct: not shown: TEV cut site, AviTag and HIS6 tag fused to the domain
T3 sequence: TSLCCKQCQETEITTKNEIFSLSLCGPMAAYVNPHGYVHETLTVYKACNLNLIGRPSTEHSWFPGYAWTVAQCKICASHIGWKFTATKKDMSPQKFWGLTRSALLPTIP

[5] = in the presence of lenalidomide
[6] = in the presence of pomalidomide

Molecule | GFP expression compared to the DMSO control [1] | binding to the cereblon IMiD-binding domain alone [3] | binding to the cereblon IMiD-binding domain [3, 5] | binding to the cereblon IMiD-binding domain [3, 6] | binding to the cereblon IMiD-binding domain ([3]; in the presence of thalidomide) | also measured
Nc1cccc2c1CN(C1CCC(=O)NC1=O)C2=O (stereo not drawn) [lenalidomide] | reduced GFP expression | – | – | – | – | –
Nc1cccc2c1C(=O)N(C1CCC(=O)NC1=O)C2=O (stereo not drawn) [pomalidomide] | reduced GFP expression | – | – | – | – | –
O=C1CCC(N2C(=O)c3ccccc3C2=O)C(=O)N1 (stereo not drawn) [thalidomide] | reduced GFP expression | – | – | – | – | –
B1 | – | no significant binding | potent and reversible binding | potent and reversible binding | potent and reversible binding | binding to the cereblon IMiD-binding domain bound to a different IMiD than the one used for selection [2]: all except one of the Fabs (Fab-phage clone TC2) was able to bind; binding compared to binding in the presence of thalidomide [3, 5]: less potent binding; binding compared to binding in the presence of thalidomide [3, 6]: less potent binding
B2 | – | – | – | – | – | competition selectivity ratio [4]: < 0.5
B3 | – | no significant binding | potent and reversible binding | potent and reversible binding | potent and reversible binding | –
